The values below come from PMC8432352.

What all share (assay): SDS-PAGE without heating
Assay [1] addresses Tail spike protein 1 (TSP1) of Salmonella phage S117 (Salmonella phage S117).
Assay [2] addresses Tail spike protein 2 (TSP2) of Salmonella phage S117 (Salmonella phage S117).
Assay [3] concerns the target Tail spike protein 3 (TSP3) of Salmonella phage S117 (Salmonella phage S117).
Assay [4] concerns the target Tail spike protein 4 (TSP4) of Salmonella phage S117 (Salmonella phage S117).

A word on the stoichiometry N: it is a count of units in the complex or per binding partner. On to “Tail spike protein 1 (TSP1) of Salmonella phage S117 (natural protein)”, for which the stoichiometry N in assay [1] amounted to 3.

In assay [2], “Tail spike protein 2 (TSP2) of Salmonella phage S117 (natural protein)” registered a stoichiometry N of 3. “Tail spike protein 3 (TSP3) of Salmonella phage S117 (natural protein)” yielded a stoichiometry N in assay [3] of 3. On to “Tail spike protein 4 (TSP4) of Salmonella phage S117 (natural protein)”, for which, in assay [4], the stoichiometry N was found to be 3.
